# Source: patent US20060057652A1
# Target: anaphase promoting complex subunit 1 (APC1) (Homo sapiens) (UniProt Q9H1A4)
# Test: cell-based or functional assay
# anaphase promoting complex subunit 1 (APC1) (Homo sapiens), sequence (Q9H1A4 whole entry, one chain of several): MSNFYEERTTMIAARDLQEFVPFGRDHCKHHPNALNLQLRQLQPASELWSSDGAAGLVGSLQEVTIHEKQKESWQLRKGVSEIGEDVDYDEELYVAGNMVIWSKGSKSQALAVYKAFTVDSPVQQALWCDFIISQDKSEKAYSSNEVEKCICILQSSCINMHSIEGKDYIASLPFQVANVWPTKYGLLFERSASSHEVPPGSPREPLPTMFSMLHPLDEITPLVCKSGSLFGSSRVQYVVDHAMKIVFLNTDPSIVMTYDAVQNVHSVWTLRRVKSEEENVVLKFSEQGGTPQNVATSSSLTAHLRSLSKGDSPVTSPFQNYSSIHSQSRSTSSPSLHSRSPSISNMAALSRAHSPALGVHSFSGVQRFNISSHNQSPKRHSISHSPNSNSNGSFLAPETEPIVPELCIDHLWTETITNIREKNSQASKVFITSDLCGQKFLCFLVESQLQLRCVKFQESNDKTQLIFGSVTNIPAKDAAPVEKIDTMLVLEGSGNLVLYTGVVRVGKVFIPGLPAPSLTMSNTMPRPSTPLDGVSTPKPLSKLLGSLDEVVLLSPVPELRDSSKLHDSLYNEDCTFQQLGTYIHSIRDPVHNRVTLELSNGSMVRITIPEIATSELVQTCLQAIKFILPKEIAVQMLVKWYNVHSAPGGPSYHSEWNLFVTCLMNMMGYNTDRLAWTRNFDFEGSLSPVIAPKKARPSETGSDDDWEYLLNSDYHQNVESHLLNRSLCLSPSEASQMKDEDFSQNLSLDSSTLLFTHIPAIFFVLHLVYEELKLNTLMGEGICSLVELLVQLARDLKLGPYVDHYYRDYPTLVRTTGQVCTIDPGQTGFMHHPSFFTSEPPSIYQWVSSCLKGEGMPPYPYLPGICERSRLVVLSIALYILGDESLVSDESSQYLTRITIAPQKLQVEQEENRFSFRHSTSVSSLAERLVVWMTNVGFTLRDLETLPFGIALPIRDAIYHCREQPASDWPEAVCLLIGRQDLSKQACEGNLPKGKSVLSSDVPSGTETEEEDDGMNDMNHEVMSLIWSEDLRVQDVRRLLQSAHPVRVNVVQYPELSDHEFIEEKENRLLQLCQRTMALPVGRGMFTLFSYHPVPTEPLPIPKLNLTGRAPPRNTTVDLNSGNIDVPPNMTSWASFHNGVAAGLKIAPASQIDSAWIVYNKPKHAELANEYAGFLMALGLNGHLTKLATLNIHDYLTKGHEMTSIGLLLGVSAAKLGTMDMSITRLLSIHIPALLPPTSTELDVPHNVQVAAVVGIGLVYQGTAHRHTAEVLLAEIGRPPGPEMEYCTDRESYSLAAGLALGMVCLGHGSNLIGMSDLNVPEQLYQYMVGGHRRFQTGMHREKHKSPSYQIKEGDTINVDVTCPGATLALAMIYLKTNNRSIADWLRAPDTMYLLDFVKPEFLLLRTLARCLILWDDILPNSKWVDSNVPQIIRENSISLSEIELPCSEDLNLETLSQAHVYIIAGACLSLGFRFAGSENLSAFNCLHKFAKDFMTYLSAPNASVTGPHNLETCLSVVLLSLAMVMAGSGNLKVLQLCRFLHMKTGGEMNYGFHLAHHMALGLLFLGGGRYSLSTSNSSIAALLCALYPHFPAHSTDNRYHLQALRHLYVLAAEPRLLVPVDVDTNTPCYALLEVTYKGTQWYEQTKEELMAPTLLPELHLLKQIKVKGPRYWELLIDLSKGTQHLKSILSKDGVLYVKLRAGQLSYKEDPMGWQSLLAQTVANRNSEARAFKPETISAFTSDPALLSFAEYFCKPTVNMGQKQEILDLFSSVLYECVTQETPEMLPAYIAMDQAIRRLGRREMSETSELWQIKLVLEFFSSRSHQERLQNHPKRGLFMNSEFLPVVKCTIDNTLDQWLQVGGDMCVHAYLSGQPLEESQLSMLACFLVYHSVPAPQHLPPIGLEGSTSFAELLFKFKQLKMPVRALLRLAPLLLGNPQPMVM
row,Substance,"percent of wild-type killing activity (apoptotic morphology, H1299 cells) (percent of wild-type killing activity)"
1,GFP-Ap(42-121) (from UniProt Q99152 42-121),67
2,GFP-Ap(82-121) (from UniProt Q99152 82-121),55
